Tested on: oxycodone
Experiment: Oxycodone 3-O-demethylase activity of CODM in crude yeast cell lysate
Assay type: biochemical, yeast strain W303
Settings: 0.1 mM oxycodone, 10 mM 2-oxoglutarate, 30° C., 3 h, LC-MS
Procedure: FIG. 29 illustrates the functional expression of CODM, in accordance with embodiments of the invention. In particular, FIG. 29 illustrates the functional expression of CODM with oxycodone 3-O-demethylase activity in yeast. The yeast codon-optimized CODM gene was integrated into the genome of yeast strain W303 and cultured in synthetic complete media for 16 hours. The parent W303 strain was also cultured in synthetic complete media for 16 hours as a no-enzyme control. The cells were pelleted and washed with 1 mL breaking buffer (100 mM Tris-HCl pH 7.5, 10% glycerol, 14 mM 2-mercaptoethanol, lx protease inhibitor). Cells were resuspended in 200 μL breaking buffer and lysed by glass bead disruption. The crude cell lysates were incubated with 10 mM ascorbic acid, 0.5 mM iron(II) sulfate, 0.1 mM oxycodone as substrate and 10 mM 2-oxoglutarate as cosubstrate in a total volume of 100 μL. 4 mM DTT was also added as a reducing agent to keep iron in the Fe^2+ state. The reaction was incubated at 30° C. for 3 h and quenched by diluting it 1:1 in ethanol with 0.1% acetic acid. […] The mass-charge ratio (m/z 302), retention time, and mass spectrum of oxymorphone produced by the yeast strain matched that of a purchased oxymorphone standard (see FIG. 29).

B1: CODM: codeine O-demethylase, yeast codon-optimized gene integrated into yeast strain W303 (protein, listed as Papaver somniferum)
chain: METPILIKLGNGLSIPSVQELAKLTLAEIPSRYTCTGESPLNNIGASVTDDETVPVIDLQNLLSPEPVVGKLELDKLHSACKEWGFFQLVNHGVDALLMDNIKSEIKGFFNLPMNEKTKYGQQDGDFEGFGQPYIESEDQRLDWTEVFSMLSLPLHLRKPHLFPELPLPFRETLESYLSKMKKLSTVVFEMLEKSLQLVEIKGMTDLFEDGLQTMRMNYYPPCPRPELVLGLTSHSDFSGLTILLQLNEVEGLQIRKEERWISIKPLPDAFIVNVGDILEIMTNGIYRSVEHRAVVNSTKERLSIATFHDSKLESEIGPISSLVTPETPALFKRGRYEDILKENLSRKLDGKSFLDYMRM
oxymorphone generated from oxycodone (3-O-demethylation): detected by LC-MS

Reference: patent US11396668B2, “Methods of producing nor-opioid and nal-opioid benzylisoquinoline alkaloids” (priority 2016, dated 2022)
